In article doi:10.1101/2021.05.19.444834v1 (bioRxiv, 2021):

Columns and labels:
ThfB and ThfM = experiment: In vitro reconstitution with ThfB and ThfM together; format: biochemical, Thermobifida fusca; conditions: 10 μM ThfA, 1 μM ThfB, 1 μM ThfM, 0.4 mM SAM, ATP, no KCl, 37 °C; 5 h; LC-MS
O-methyltransferase ThfM = experiment: In vitro aspartimide formation by ThfM alone; format: biochemical, Thermobifida fusca; conditions: 10 μM substrate, 1 μM ThfM, 0.4 mM SAM, 100 mM sodium phosphate, 37 °C; LC-MS

Substance: ThfA
- conversion to triply dehydrated product (ThfB and ThfM): ~ 75%
- modification by ThfM alone (O-methyltransferase ThfM): no reaction
